The values that follow come from the RNAGym collection of RNA variant scans (doi:10.1093/nar/gkz1192).

The labels stand for the following.
B1: CPEB3 Ribozyme (parent)
chain: UAACAGGGGGCCACAGCAGAAGCGUUCACGUCGCAGCCCCUGUCAGAUUCUGGUGAAUCUGCGAAUUCUGCUGUAUAUCUC

This data set covers variants of B1. Description: self-cleavage, relative activity (ratio to wild type); higher = more cleavage; in vitro, sequencing. Put shortly:
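Barcoded CPEB3 ribozyme mutants, produced by rounds of error-prone PCR, self-cleaved while being transcribed with T7 RNA polymerase for 5 hours at 37°C and during a subsequent 15 min DNase I step before EDTA was added. Sequencing of template-switched cDNA on Illumina gave cleaved and total reads, and DNA sequencing assigned barcodes to variants. Each variant's relative activity is its cleaved/total read fraction divided by the unmutated ribozyme's fraction, averaged across three batches. A variant needed a minimum of 5 reads.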
Regarding C38U U41C, the self-cleavage amounted to 0.87.
The figure for C38U U41A is 0.42.
The figure for C38U U41G is 0.42; for C38U U49C it is 0.34; for C38U U49G it is 0.37.
As to C40A A65G, the self-cleavage stood at 0.31.
Turning to C37U U48C, the self-cleavage turned out to be 0.36.
C39A G73C: the self-cleavage turned out to be 0.76.
Consider C39A U67A, for which the self-cleavage was 0.34.
Turning to C39A U67C, the self-cleavage worked out at 0.16.
In the case of C40G U60A, the self-cleavage was 0.11.
On to C40G U60C, for which the self-cleavage was found to be 0.16.
Regarding C37U A56G, the self-cleavage stood at 0.45.
As to C37U A56U, the self-cleavage was 0.47.
The figure for C39A U78A is 0.43.
In the case of C39A U78C, the self-cleavage was 0.26.
In the case of C38G U69A, the self-cleavage came to 0.19.
For the variant C38U U60C, the self-cleavage turned out to be 0.33.
Regarding C38U U60G, the self-cleavage turned out to be 0.25.
Regarding C38A A57G, the self-cleavage was 0.19.
Regarding C39U A47G, the self-cleavage came out at 0.48.
Then C39U A47U, with 0.42.
For C37U A65G, the self-cleavage was found to be 0.28.
As for C37U A65U, the self-cleavage came out at 0.16.
Then C40A A75G, with 0.47.
For C40A A75U, the self-cleavage stood at 0.43.
With C39U U74A, the self-cleavage is 1.08.
Then C39U U74C, with 1.1.
Turning to C37U A45C, the self-cleavage came out at 0.29.
The figure for C37U A45U is 0.4.
Then C37U A45G, with 0.5.
Then C40G U48C, with 0.13.
As to C40G U48A, the self-cleavage is 0.67.
In the case of C40A A45C, the self-cleavage was found to be 0.23.
Regarding C40A A45G, the self-cleavage came to 0.26.
Take C40A A45U: the self-cleavage was determined as 0.31.
As to C38U U54C, the self-cleavage worked out at 0.68.
As for C38U U54A, the self-cleavage worked out at 0.85.
The figure for C37U C59A is 0.22.
Turning to C38G C59U, the self-cleavage was determined as 0.22.
Consider C38U U67A, for which the self-cleavage was determined as 0.41.
Turning to C37U G73A, the self-cleavage stood at 1.43.
Then C38A U54C, with 0.29; and C38A U54A, with 0.56.
Take C39U A45G: the self-cleavage came out at 0.69.
On to C39U A45U, for which the self-cleavage was 0.26.
Consider C37U G70A, for which the self-cleavage came out at 0.32.
Then C39U A57G, with 0.27; and C38A U43A, with 0.34; and C40A U76A, with 0.28.
Then C40A U76C, with 0.38; and C38A G73C, with 0.45.
As to C38A G73U, the self-cleavage was 0.91.
Then C38A U60A, with 0.2; and C38A U60C, with 0.37; and C40A A47G, with 0.21.
Consider C40A A47C, for which the self-cleavage was found to be 0.17.
For the variant C40A U66C, the self-cleavage was 0.18.
In the case of C38A A75U, the self-cleavage was 0.39.
Turning to C39A U48A, the self-cleavage worked out at 0.21.
Then C39A U48C, with 0.12.
Consider C40G A65G, for which the self-cleavage was 0.35.
For C38U U80A, the self-cleavage was 0.96.
C38U U80G: the self-cleavage worked out at 1.03.
For the variant C38U U80C, the self-cleavage worked out at 1.01.
The figure for C37U U69A is 0.2; for C37U U69C it is 0.42.
Consider C38A A47C, for which the self-cleavage was determined as 0.5.
Then C38A A47G, with 0.2; and C37U C79U, with 1.03.
Regarding C37U C79A, the self-cleavage was 1.11.
C40G U66C: the self-cleavage was 0.22.
Then C38G U80C, with 0.56.
On to C38G U80A, for which the self-cleavage came to 0.26.
For the variant C37U U54A, the self-cleavage stood at 0.82.
With C37U U54C, the self-cleavage stood at 0.79.
As to C38G, the self-cleavage was 0.26.
For the variant C38A, the self-cleavage stood at 0.3.
With C38U, the self-cleavage stood at 0.9.
C38U G70U: the self-cleavage came out at 0.38.
Consider C38U U43C, for which the self-cleavage amounted to 0.28.
The figure for C40A G63A is 0.12; for C37U C71U it is 0.38; for C37U C71G it is 0.21.
With C39A U60A, the self-cleavage was 0.18.
Turning to C39A U60C, the self-cleavage worked out at 0.13.
In the case of C39A U60G, the self-cleavage came out at 0.09.
As for C40A U60C, the self-cleavage stood at 0.2.
The figure for C40A U60G is 0.2; for C39U U80C it is 0.8; for C39G A45G it is 0.29.
Then C39A C40U, with 0.38; and C39G U72C, with 0.3.
In the case of C38A G42C, the self-cleavage is 0.28.
Take C39A G70A: the self-cleavage turned out to be 0.11.
Then C39U A65G, with 0.32; and C40A U58C, with 0.1.
Regarding C40A U72G, the self-cleavage came out at 0.41.
As to C40A U72C, the self-cleavage worked out at 0.37.
The figure for C38G U67C is 0.11.
For the variant C39A U74C, the self-cleavage turned out to be 0.49.
As for C39A U74A, the self-cleavage amounted to 0.53.
On to C39U U67C, for which the self-cleavage was 0.21.
With C37G U80G, the self-cleavage was 1.16.
For the variant C37G U80C, the self-cleavage came out at 1.
Then C38U U72C, with 1.01; and C38U U72A, with 0.37.
The figure for C40A U67C is 0.28; for C37U U49A it is 0.38; for C37U U49C it is 0.37.
Turning to C38A A56U, the self-cleavage is 0.27.
Take C38A A56C: the self-cleavage is 0.1.
Then C38A A56G, with 0.26; and C40A U80A, with 0.26; and C40A U80C, with 0.24.
With C39G C50G, the self-cleavage was 0.1.
Then C40A U49A, with 0.18; and C37U G61A, with 0.21; and C37U A47U, with 0.39.
The figure for C37U A47G is 0.58; for C38U A64G it is 0.37; for C38U A64U it is 0.37.
As for C38U A64C, the self-cleavage came to 0.82.
With C39G A57G, the self-cleavage was 0.19.
As to C40A U54C, the self-cleavage came out at 0.28.
Consider C40A U54A, for which the self-cleavage amounted to 0.29.
For C38A C40U, the self-cleavage is 0.22.
The figure for C38A C40A is 0.05.
As to C39U C79U, the self-cleavage was 1.02.
On to C38G A57G, for which the self-cleavage stood at 0.23.
For C39A A47C, the self-cleavage turned out to be 0.2.
C39A A47G: the self-cleavage was found to be 0.35.
Regarding C40A C50A, the self-cleavage was found to be 0.27.
Then C40A C50U, with 0.22; and C39G A65G, with 0.17; and C38U A57G, with 0.39.
Turning to C38U A57U, the self-cleavage is 0.39.
Then C39U U49C, with 0.31.
C39A U80A: the self-cleavage turned out to be 0.3.
For the variant C39A U80C, the self-cleavage turned out to be 0.26.
Then C38A U80A, with 0.11.
As to C38A U80C, the self-cleavage was determined as 0.41.
Then C39U U78A, with 0.89; and C38U U69G, with 0.42; and C38U U69A, with 0.53.
As to C38U U69C, the self-cleavage amounted to 0.38.
On to C39A A45G, for which the self-cleavage came to 0.33.
For the variant C37U A77U, the self-cleavage is 0.91.
As to C37U A77G, the self-cleavage amounted to 0.78.
The figure for C39A U41A is 0.27; for C39A U41C it is 0.35; for C37U U74A it is 1.17.
For the variant C37U U74C, the self-cleavage was 1.12.
With C38U C39U, the self-cleavage is 0.26.
The figure for C39A A77G is 0.22.
C39A A77U: the self-cleavage came to 0.32.
The figure for C39A U49A is 0.23; for C39A U51C it is 0.34.
Regarding C39U C62A, the self-cleavage is 0.35.
Consider C39A C81G, for which the self-cleavage was 0.16.
C40G U54G: the self-cleavage came out at 0.29.
With C40G U54C, the self-cleavage is 0.2.
In the case of C40A U48C, the self-cleavage worked out at 0.18.
For C40A U48A, the self-cleavage was 0.15.
As to C38A U48A, the self-cleavage amounted to 0.36.
On to C37U U43G, for which the self-cleavage was 0.19.
For the variant C37U U43C, the self-cleavage was 0.31.
